In US20240392004A1 (IMMUNOWAKE, published 2024):

Tests used:
[1] = biological target: T1, human IL-2 receptor (IL-2Rα, IL-2Rβ, IL-2Rγ) (human, UniProt P01589 22-272; P14784 27-551; P31785 23-369); test: FACS on HEK-Blue IL-2 cells (IL-2 receptor, no PD-1)
T1 construct: whole, on cells
T1 sequence (looked up) 1: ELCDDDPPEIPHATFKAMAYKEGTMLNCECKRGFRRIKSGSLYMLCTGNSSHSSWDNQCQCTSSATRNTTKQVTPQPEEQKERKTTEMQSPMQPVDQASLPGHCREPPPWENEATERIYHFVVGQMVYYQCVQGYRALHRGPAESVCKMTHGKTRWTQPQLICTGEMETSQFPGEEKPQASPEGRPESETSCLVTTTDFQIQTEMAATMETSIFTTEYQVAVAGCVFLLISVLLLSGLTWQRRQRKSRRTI
T1 sequence (looked up) 2: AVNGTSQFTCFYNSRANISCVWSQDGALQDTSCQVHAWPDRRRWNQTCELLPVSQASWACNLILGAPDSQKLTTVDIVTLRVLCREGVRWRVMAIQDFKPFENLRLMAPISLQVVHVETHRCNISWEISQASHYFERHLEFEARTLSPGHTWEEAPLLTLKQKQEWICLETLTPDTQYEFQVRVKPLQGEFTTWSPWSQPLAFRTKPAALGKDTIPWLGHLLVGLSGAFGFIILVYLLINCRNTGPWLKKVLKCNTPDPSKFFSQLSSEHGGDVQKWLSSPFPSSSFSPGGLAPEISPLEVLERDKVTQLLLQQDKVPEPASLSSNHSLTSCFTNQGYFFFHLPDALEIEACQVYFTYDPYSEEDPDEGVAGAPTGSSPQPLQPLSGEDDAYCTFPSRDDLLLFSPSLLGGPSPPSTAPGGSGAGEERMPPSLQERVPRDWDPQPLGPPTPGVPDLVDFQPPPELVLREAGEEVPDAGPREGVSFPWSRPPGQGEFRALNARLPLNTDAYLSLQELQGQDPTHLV
T1 sequence (looked up) 3: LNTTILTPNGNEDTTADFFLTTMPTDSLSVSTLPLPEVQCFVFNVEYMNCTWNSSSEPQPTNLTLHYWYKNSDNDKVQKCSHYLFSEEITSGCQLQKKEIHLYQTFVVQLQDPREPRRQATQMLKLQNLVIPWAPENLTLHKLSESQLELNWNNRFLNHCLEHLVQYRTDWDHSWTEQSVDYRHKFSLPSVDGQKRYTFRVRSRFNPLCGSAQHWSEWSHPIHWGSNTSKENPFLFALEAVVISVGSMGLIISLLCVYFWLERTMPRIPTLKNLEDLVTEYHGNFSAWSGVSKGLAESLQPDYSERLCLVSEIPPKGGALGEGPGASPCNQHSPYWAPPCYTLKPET

[2] = biological target: T1, human IL-2 receptor (IL-2Rα, IL-2Rβ, …); test: cell-based or functional assay
[3] = biological target: human PD-1 on cells (HEK-PD-1 reporter cells; activated PBMC) (human, UniProt Q15116 25-288); test: cell-based or functional assay
human PD-1 on cells (HEK-PD-1 reporter cells; activated PBMC), sequence (Q15116 25-288): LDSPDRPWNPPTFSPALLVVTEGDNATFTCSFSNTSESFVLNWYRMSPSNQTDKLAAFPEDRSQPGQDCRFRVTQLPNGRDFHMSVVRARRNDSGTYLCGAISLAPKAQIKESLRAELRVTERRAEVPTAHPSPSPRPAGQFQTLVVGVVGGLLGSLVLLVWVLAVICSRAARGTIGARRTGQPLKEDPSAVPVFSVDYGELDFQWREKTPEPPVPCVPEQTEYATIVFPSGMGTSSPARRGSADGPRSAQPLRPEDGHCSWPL

B1: IL-2(R38D/K43E/E61R)/PD-L2-Fc immunomodulatory molecule (Fc fusion)
chain 1: LFTVTVPKELYIIEHGSNVTLECNFDTGSHVNLGAITASLQKVENDTSPHRERATLLEEQLPLGKASFHIPQVQVRDEGQYQCIIIYGVAWDYKYLTLKVKASYRKINTHILKVPETDEVELTCQATGYPLAEVSWPNVSVPANTSHSRTPEGLYQVTSVLRLKPPPGRNFSCVFWNTHVRELTLASIDLQSQMEPRTHPTGGGGSAPTSSSTKKTQLQLEHLLLDLQMILNGINNYKNPKLTDMLTFEFYMPKKATELKHLQCLERELKPLEEVLNLAQSKNFHLRPRDLISNINVIVLELKGSETTFMCEYADETATIVEFLNRWITFCQSIISTLTDKTHTCPPCPAPEDEGGPSVFLFPPKPKDTLMISRTPEVTCVVVDVSHEDPEVKFNWYVDGVEVHNAKTKPREEQYNSTYRVVSVLTVLHQDWLNGKEYKCKVSNKALPAPIEKTISKAKGQPREPQVYVYPPSREEMTKNQVSLTCLVKGFYPSDIAVEWESNGQPENNYKTTPPVLDEDGSFALVSKLTVDKSRWQQGNVFSCSVMHEALHNHYTQKSLSLSPGK
chain 2: LFTVTVPKELYIIEHGSNVTLECNFDTGSHVNLGAITASLQKVENDTSPHRERATLLEEQLPLGKASFHIPQVQVRDEGQYQCIIIYGVAWDYKYLTLKVKASYRKINTHILKVPETDEVELTCQATGYPLAEVSWPNVSVPANTSHSRTPEGLYQVTSVLRLKPPPGRNFSCVFWNTHVRELTLASIDLQSQMEPRTHPTGGGGSDKTHTCPPCPAPEKKGGPSVFLFPPKPKDTLMISRTPEVTCVVVDVSHEDPEVKFNWYVDGVEVHNAKTKPREEQYNSTYRVVSVLTVLHQDWLNGKEYKCKVSNKALPAPIEKTISKAKGQPREPQVYVLPPSREEMTKNQVSLLCLVKGFYPSDIAVEWESNGQPENRYMTWPPVLDSDGSFFLYSKLTVDKSRWQQGNVFSCSVMHEALHNHYTQKSLSLSPGK
notes: also called ligand-IL-2 mutant-PD-L2-Fc; IW-#11
B1 was tested, and the binding result [1] was “no binding”, the “Percent IL-2 signal transduction (HEK-IL-2 reporter assay)” value [2] was 2.4% and the “Percent IL-2 signal transduction (HEK-PD-1-IL-2 reporter assay)” value [3] was 43.5%.
